Source: IntAct's records for PubMed 34400613

Key:
G3BP1 [1] = target: G3BP1 (UniProt Q13283)
G3BP1 [2] = target: G3BP1 (UniProt Q13283); remark: listed apart in the source

UniProt Q13283, sequence (Q13283 whole entry, looked up): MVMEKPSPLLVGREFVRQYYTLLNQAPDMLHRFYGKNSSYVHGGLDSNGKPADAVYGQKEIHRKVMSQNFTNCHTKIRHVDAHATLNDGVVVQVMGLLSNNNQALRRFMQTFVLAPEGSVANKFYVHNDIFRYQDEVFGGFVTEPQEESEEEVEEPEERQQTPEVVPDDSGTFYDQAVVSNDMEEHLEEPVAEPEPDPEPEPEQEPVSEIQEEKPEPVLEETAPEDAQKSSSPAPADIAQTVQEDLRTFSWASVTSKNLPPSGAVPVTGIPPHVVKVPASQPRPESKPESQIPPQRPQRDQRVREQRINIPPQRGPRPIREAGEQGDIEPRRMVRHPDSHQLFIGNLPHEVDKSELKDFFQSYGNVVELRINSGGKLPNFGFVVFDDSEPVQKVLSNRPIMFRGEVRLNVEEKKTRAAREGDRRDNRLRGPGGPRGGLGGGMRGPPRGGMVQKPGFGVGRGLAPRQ

Row | Substance | effect of a mutation on the interaction (G3BP1 [1]) | effect of a mutation on the interaction (G3BP1 [2])
1 | Nucleoprotein (SARS-CoV-2) (from UniProt P0DTC9) G18A | decreasing interaction strength | 
2 | Nucleoprotein (SARS-CoV-2) (from UniProt P0DTC9) G18E |  | decreasing interaction strength
3 | Nucleoprotein (SARS-CoV-2) (from UniProt P0DTC9) I15A |  | decreasing interaction strength
4 | Nucleoprotein (SARS-CoV-2) (from UniProt P0DTC9) I15A;T16A;F17A;G18A | disrupting interaction strength | 
5 | Nucleoprotein (SARS-CoV-2) (from UniProt P0DTC9) T16A |  | decreasing interaction strength
